Data taken from patent US20250361297A1, “ANTI- SIGLEC-15 BINDING MOLECULES AND METHODS OF USE” (ADAPTAM THERAPEUTICS, S.L., priority 2024, published 2025).

Target: T1, recombinant human Siglec-15 protein (Homo sapiens, UniProt Q6ZMC9)
T1 construct: purchased Bonopusbio CW70-50 ug
T1 sequence (Q6ZMC9 20-263 limits assumed): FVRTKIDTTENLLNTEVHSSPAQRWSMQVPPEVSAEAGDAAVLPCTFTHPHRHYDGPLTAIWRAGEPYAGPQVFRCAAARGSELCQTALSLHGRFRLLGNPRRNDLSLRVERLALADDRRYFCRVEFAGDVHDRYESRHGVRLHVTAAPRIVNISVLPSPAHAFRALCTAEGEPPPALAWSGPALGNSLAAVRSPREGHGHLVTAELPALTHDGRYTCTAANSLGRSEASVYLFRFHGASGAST
Experiment: BIACORE surface plasmon resonance binding affinity
Settings: SPR; antibody as ligand, human Siglec-15 as analyte; 1:1 Langmuir model
Text: Binding affinity determination of anti-Siglec-15 monoclonal antibodies using BIACORE surface plasmon resonance: The purified anti-Siglec-15 monoclonal antibodies (mAbs) were characterized for binding affinity and binding kinetics by Biacore T200 system (GE healthcare, Pittsburgh, PA, USA). Anti-Siglec-15 antibodies were covalently linked to a CM5 chip (carboxy methyl dextran coated chip, GE healthcare, Cat #BR-1005-30) via primary amines, using a standard amine coupling kit provided by Biacore (GE healthcare, Pittsburgh, PA, USA). Un-reacted moieties on the biosensor surface were blocked with ethanolamine. Then, serially diluted recombinant human Siglec-15-his protein (Bonopusbio, CW70-50 ug), 2-fold serial dilution in HBS-EP buffer starting at 80 nM, were respectively flown onto the chip at a flow rate of […]. The antigen-antibody association kinetics was followed for 2 minutes, and the dissociation kinetics was followed for 10 minutes. The association and dissociation curves were fit to a 1:1 Langmuir binding model using BIAcore evaluation software. The dissociation rate (kd) and association constant (ka) rate constants were obtained using Evaluation Software. The equilibrium dissociation constant (KD) was calculated from the ratio of kd over ka.

B1: S15B1-VH1 + VL2: humanized S15B1 antibody, humanized VH1 (SEQ ID NO: 103) with humanized VL2 (antibody, V domains shown)
VH: QVQLVQSGAEVKKPGASVKVSCKASGYAFSSSWMNWVRQAPGQGLEWIGRIYPGHGETNYNGKFKDRVTMTADTSTSTVYMELSSLRSEDTAVYFCARVDNSDPYYFDYWGQGTTVTVSS
VL: DIVLTQSPASLAVSPGQRATITCRASKSVSTSGYSYMHWYQQKPGQPPKLLIYLASNLESGVPARFSGSGSGTDFTLTINPVEAEDTATYYCQHGRELPFTFGGGTKLEIK
  ka: 3.54e+06 M⁻¹ s⁻¹
  kd: 0.000563 s⁻¹

B2: S15B1-VH3 + VL1: humanized S15B1 antibody, humanized VH3 with humanized VL1 (antibody, V domains shown)
VH: QVQLVQSGAEVKKPGASVKVSCKASGYAFSSSWMNWVKQAPGQGLEWIGRIYPGHGETNYNGKFKDRATMTADTSTSTVYMELSSLRSEDTAVYFCARVDNSDPYYFDYWGQGTTVTVSS
VL: DIVLTQSPASLAVSPGQRATITCRASKSVSTSGYSYMHWYQQKPGQPPKLLIYLASNLESGVPARFSGSGSGTDFTLTINPVEAEDTANYYCQHGRELPFTFGGGTKLEIK
  ka: 3.73e+06 M⁻¹ s⁻¹
  kd: 0.000257 s⁻¹

B3: S15B1-VH2 + VL1: humanized S15B1 antibody, humanized VH2 with humanized VL1 (antibody, V domains shown)
VH: QVQLVQSGAEVKKPGASVKVSCKASGYAFSSSWMNWVRQAPGQGLEWIGRIYPGHGETNYNGKFKDRVTMTADTSTSTVYMELSSLRSEDTAVYFCARVDNSDPYYFDYWGQGTTVTVSS
VL: DIVLTQSPASLAVSPGQRATITCRASKSVSTSGYSYMHWYQQKPGQPPKLLIYLASNLESGVPARFSGSGSGTDFTLTINPVEAEDTANYYCQHGRELPFTFGGGTKLEIK
  ka: 3.8e+06 M⁻¹ s⁻¹
  kd: 0.000473 s⁻¹

B4: S15B1-VH4 + VL1: humanized S15B1 antibody, humanized VH4 with humanized VL1 (antibody, V domains shown)
VH: QVQLVQSGAEVKKPGASVKVSCKASGYAFSSSWMNWVKQAPGQGLEWIGRIYPGHGETNYNGKFKDRATMTADKSTSTVYMELSSLRSEDTAVYFCARVDNSDPYYFDYWGQGTTVTVSS
VL: DIVLTQSPASLAVSPGQRATITCRASKSVSTSGYSYMHWYQQKPGQPPKLLIYLASNLESGVPARFSGSGSGTDFTLTINPVEAEDTANYYCQHGRELPFTFGGGTKLEIK
  ka: 4.1e+06 M⁻¹ s⁻¹
  kd: 0.000385 s⁻¹

B5: S15B1-VH3 + VL2: humanized S15B1 antibody, humanized VH3 with humanized VL2 (antibody, V domains shown)
VH: QVQLVQSGAEVKKPGASVKVSCKASGYAFSSSWMNWVKQAPGQGLEWIGRIYPGHGETNYNGKFKDRATMTADTSTSTVYMELSSLRSEDTAVYFCARVDNSDPYYFDYWGQGTTVTVSS
VL: DIVLTQSPASLAVSPGQRATITCRASKSVSTSGYSYMHWYQQKPGQPPKLLIYLASNLESGVPARFSGSGSGTDFTLTINPVEAEDTATYYCQHGRELPFTFGGGTKLEIK
  ka: 4.49e+06 M⁻¹ s⁻¹
  kd: 0.000293 s⁻¹

B6: S15B1-VH2 + VL2: humanized S15B1 antibody, humanized VH2 with humanized VL2 (antibody, V domains shown)
VH: QVQLVQSGAEVKKPGASVKVSCKASGYAFSSSWMNWVRQAPGQGLEWIGRIYPGHGETNYNGKFKDRVTMTADTSTSTVYMELSSLRSEDTAVYFCARVDNSDPYYFDYWGQGTTVTVSS
VL: DIVLTQSPASLAVSPGQRATITCRASKSVSTSGYSYMHWYQQKPGQPPKLLIYLASNLESGVPARFSGSGSGTDFTLTINPVEAEDTATYYCQHGRELPFTFGGGTKLEIK
  ka: 3.44e+06 M⁻¹ s⁻¹
  kd: 0.000326 s⁻¹
